Laboratory results as given in patent US7595158B2, “Bcl2L12 polypeptide activators and inhibitors” (Dana-Farber Cancer Institute, Inc., priority 2003, dated 2009).

How the values were obtained:
Erk1 and Erk2 = assay: Phosphorylation of Erk1/2 (p44/p42) in transfected astrocytes; assay type: cell-based; settings: vs control cells expressing LacZ
Description: (§1) Ink4a/Arf deficient astrocytes transfected with a vector encoding either LacZ, Bcl2L12-V5, or EGFR* polypeptides were cultured for six days. Each day, the number of cells in each culture was determined. In addition, stably transfected cells were harvested and assessed for the phosphorylation of Erk1/2 (p44/p42).

[1] = system: Ink4a-/-/Arf-/- astrocytes; assay: Growth of transduced Ink4a-/-/Arf-/- astrocytes under normal and low-serum conditions; assay type: cell-based, mouse
Description: The Bcl2L12-V5, R-RAS, and IRF3 nucleic acid sequences were cloned into expression vectors. Controls included expression vectors containing EGFR or Bcl2 nucleic acid sequences. The encoded polypeptides were expressed in primary astrocytes and tested for cell growth, transformation, and apoptosis activities. Primary astrocytes deficient for Ink4a/Arf (e.g., Ink4a^−/−/Arf^−/− astrocytes) were used given the prominence of this tumor suppressor lesion in advanced human gliomas. The following was performed to assess growth characteristics under normal growth conditions. Mouse Ink4a^−/−/Arf^−/− astrocytes were retro-virally transduced with pBabe vector alone; Bcl2L12-V5 nucleic acid; R-RAS nucleic acid; IRF3 nucleic acid; EGFR* nucleic acid; or Bcl2 nucleic acid. After retro-viral infection, transduced mouse Ink4a^−/−/Arf^−/− astrocytes were subjected to puromycin (2 μg/mL) selection for four days and plated at a density of 1×10^5 cells/10 cm dish using 10% FBS-DMEM medium. All transduced Ink4a^−/−/Arf^−/− astrocytes were counted each day for five days to determine cell numbers (mean±S.D.; three independent experiments with each being performed in triplicate).
The following was performed to assess growth characteristics under low-serum growth conditions. Retro-virally transduced mouse Ink4a^−/−/Arf^−/− astrocytes (1×10^6 cells/10 cm dish) were allowed to attach onto plates in 10% FBS-DMEM medium for five hours. After five hours, the medium was changed to 0.1% FBS-DMEM, and the cells were allowed to grow for three days. After three days in 0.1% FBS, the cells were counted to determine cell numbers (mean±S.D.; three independent experiments with each being performed in triplicate). The number of Ink4a^−/−/Arf^−/− astrocytes infected with pBabe-vector was set to 1.0.

[2] = system: p53 mediated transcription; assay: p53 luciferase reporter (PG13) in Ink4a/Arf deficient astrocytes; assay type: cell-based; settings: normalized to βGal, vs vector control
Description: Activation of the p53 transcription factor in response to a variety of cellular stresses, including DNA damage and oncogene activation, initiates a program of gene expression that blocks the proliferative expansion of damaged cells. To asses the effect of Bcl2L12 polypeptides on p53 mediated transcription, Ink4a/Arf deficient astrocytes ectopically expressing a Bcl2L12-V5 polypeptide were transfected with increasing amounts of nucleic acid encoding a p53 polypeptide and a luciferase construct bearing a dimerized p53 binding site in its promoter (PG13).

[3] = system: Ink4a/Arf deficient astrocytic cell cultures; assay: Nuclear swelling (Nicoletti method) in Ink4a/Arf deficient astrocytes; assay type: cell-based, mouse; settings: STS 500 nM 24 hours; vector only about 42 percent
Description: To quantify nuclear swelling in Ink4a/Arf deficient astrocytic cell cultures, cells transfected with vector only or a vector encoding a Bcl2L12-V5 polypeptide were treated with or without STS (500 nM) for 24 hours, lysed, and stained with Propidium Iodide (Nicoletti method). Nuclei with increased forward scatter (i.e., increased size) were defined as swollen, and the number of those nuclei relatively to the total number of nuclei was expressed as the percent swelling.

astrocytes = assay: Mitochondrial membrane potential (JC-1, FACS) in STS-treated astrocytes; assay type: cell-based
Description: Like nuclear swelling and plasma membrane integration, a loss of the mitochondrial membrane potential is a hallmark of […]. To determine the dissipation of ΔΨM, STS treated astrocytes transfected with either vector only (pBabe) or a vector encoding a Bcl2L12-V5 polypeptide were stained with JC-1, and cells with an increase in fluorescence (FL-1) were quantified using FACS analysis. JC-1 (5,5′,6,6′-tetrachloro-1,1′,3,3′-tetraethylbenzimidazolylcarbocyanine iodide) is a green-fluorescent probe that exists as a monomer at low concentrations or at low membrane potential. […] Thus, the emission of this cyanine dye can be used as a sensitive measure of mitochondrial membrane potential.

[4] = system: Ink4a/Arf deficient embryonic fibroblasts; assay: Colony formation of Ink4a/Arf deficient embryonic fibroblasts; assay type: cell-based; settings: about 300 cells per 6 well plate; vector only about 13
Description: In addition, Ink4a/Arf deficient embryonic fibroblasts were transfected with vector only or a vector encoding a Bcl2L12 polypeptide or Bcl2 polypeptide. Once the cells were transfected, the number of colonies formed in cultures (about 300 cells per 6 well plate) was determined. Expression of Bcl2L12 polypeptide promoted growth of Ink4a/Arf deficient embryonic fibroblasts. […] In a similar experiment, Ink4a/Arf deficient embryonic fibroblasts were co-transfected with a vector encoding H-RasV12 and either a vector only, vector encoding Bcl2L12 polypeptide, or a vector encoding Bcl2 polypeptide. Once the cells were transfected, the number of foci formed per transfection was determined. Expression of Bcl2L12 polypeptide or Bcl2 polypeptide in combination with H-RasV12 expression promoted growth of Ink4a/Arf deficient embryonic fibroblasts (about 1.5 to 2 fold more foci per transfection for cells expressing Bcl2L12 polypeptide or Bcl2 polypeptide compared to control pBabe cells).

BJAB and SKW6.4 cells = assay: Apoptosis of lymphoid cells stimulated with anti-CD95 or STS (FACS scatter); assay type: cell-based; settings: anti-CD95 or STS 24 hours, GFP positive cells
Description: In addition, BJAB and SKW6.4 cells were co-transfected (1:3 ratio) with a vector encoding GFP and either an empty vector control or a vector encoding Bcl2L12-V5. After 24 hours, the transfected cells were stimulated with anti-CD95 or STS for 24 hours at different concentrations. The cells were analyzed by FACS. A gate was set only on GFP positive cells. Apoptosis was defined as an increase in sideward scatter and a decrease in forward scatter. SKW6.4 cells are type I B cells, while BJAB cells are type II B cells.

caspases 3 and 7 = assay: Western blot of procaspase maturation in STS-treated Ink4a/Arf deficient astrocytes; assay type: cell-based, mouse; settings: STS 1 μM, 0-16 hours
Description: In another experiment, Ink4a/Arf deficient astrocytic cell cultures ectopically expressing the Bcl2L12-V5 polypeptide or containing pBabe were treated with STS (1 μM) for 0, 2, 4, 8, or 16 hours. Cell lysates were analyzed by Western blotting using anti-caspase-9 antibodies (1:1000; Cell Signaling), anti-caspase-7 antibodies (0.5 μg/ml; BD Pharmingen), anti-caspase-3 antibodies (0.25 μg/ml; BD Transduction Laboratories), anti-cleaved caspase-9 antibodies (1:1000; Cell Signaling), anti-cleaved capase-7 antibodies (1:1000; Calbiochem), and anti-cleaved caspase-3 antibodies (1:1000; Calbiochem).

[5] = system: Ink4a/Arf deficient astrocytes; assay: Cell growth of transfected Ink4a/Arf deficient astrocytes over six days; assay type: cell-based, mouse; settings: LacZ about 1.5×10^6 cells
Description: as §1

B1: Bcl2L12-V5: Bcl2L12 polypeptide having the V5 epitope tag, ectopically expressed from pBabe-Bcl2L12-V5 vector; human amino acid sequence 1-334 (protein)
chain: MGRPAGLFPPLCPFLGFRPEACWERHMQIERAPSVPPFLRWAGYRPGPVRRRGKVELIKFVRVQWRRPQVEWRRRRWGPGPGASMAGSEELGLREDTLRVLAAFLRRGEAAGSPVPTPPRSPAQEEPTDFLSRLRRCLPCSLGRGAAPSESPRPCSLPIRPCYGLEPGPATPDFYALVAQRLEQLVQEQLKSPPSPELQGPPSTEKEAILRRLVALLEEEAEVINQKLASDPALRSKLVRLSSDSFARLVELFCSRDDSSRPSRACPGPPPPSPEPLARLALAMELSRRVAGLGGTLAGLSVEHVHSFTPWIQAHGGWEGILAVSPVDLNLPLD
modifications: left off: small tags and cut ends
levels of Erk1 and Erk2 phosphorylation (Erk1 and Erk2): higher
resistance to growth inhibition by low serum culture ([1]; 0.1% FBS, three days, vs pBabe): significantly resistant to growth inhibition
growth / proliferation under normal growth conditions ([1]; over-expression, 10% FBS, vs vector only): significant increase in growth
transcriptional activity of p53 (reporter activity) [2]: marked decrease of transcriptional activity
swelling (nuclei) [3]: about 67%
dissipated mitochondrial membrane potential (astrocytes): marked increase in the dissipated membrane potential
number of colonies [4]: about 26 colonies
apoptosis (BJAB and SKW6.4 cells): promoted apoptosis
maturation of effector caspases (caspases 3 and 7): significant reduction of the maturation of effector caspases 3 and 7
cell number on day 6 [5]: about 3.8×10^6 cells
